A word on the stoichiometry N: it is the number of molecules, sites or subunits per partner or assembly.

Test [1] deals with Group B Streptococcus glyceraldehyde 3-phosphate dehydrogenase, wild type (Streptococcus agalactiae (Group B Streptococcus)). Put plainly: crystal structure; hanging drop vapor diffusion at 295 K, 20-28% PEG4000, 0.1 M MES pH 6.5; apo, mixed-holo, holo (2 mM NAD) and ternary (2 mM NAD, 11 mM DL-G3H) crystals; four subunits in the asymmetric unit.
The target is the same in test [2]. Put plainly: SEC; Superdex 200 in 25 mM Hepes, 100 mM NaCl, 5 mM beta-mercaptoethanol, pH 7.35. In general terms: SEC sorts molecules by how far they enter the pores of the column.

As to “Group B Streptococcus glyceraldehyde 3-phosphate dehydrogenase, wild type (enzyme)”, the stoichiometry N in test [1] and in test [2] was 4 throughout.

The record behind these values is publication PMC5119734.
